The values below come from patent US20140065128A1.

Experiment [1] addresses Human myeloma IgE (human) (UniProt P01854). Description: SPR (BIAcore 2000, 25 C): GST-EndoS (E235Q) amine-coupled to a CM5 chip, human myeloma IgE injected at 10-1.25 ug/ml; 1:1 Langmuir fit, KD from mean rate constants.
The target of experiment [2] is Human IgE in whole blood of healthy volunteers (on basophils). The experiment is described as follows: cell-based or functional assay.

In experiment [1], “GST-EndoS (E235Q), enzymatically inactive form of EndoS from Streptococcus pyogenes (from UniProt Q99Y92 37-995) (enzyme)” returned a Kd of 133 nM.

In experiment [2], “GST-EndoS (enzymatically active) (from UniProt Q99Y92 37-995) (enzyme)” registered a CD203c+ cells among CD123+, HLA-DR- basophils after chicken anti-IgE stimulation of whole blood (FACS); untreated blood 83% of 15%.

One may read the Kd as the concentration at which binding is half-saturated. Lower therefore signals tighter binding.
